# A protein production outcome set (Wang et al. 2014)
# Experiment: label from the status in PepcDB records
# 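Note: failed if final PepcDB status was selected cloned or expressed and not failed if soluble or beyond.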
row,Sequence,protein production
1,MNLESITVVLPTRNEAGNIGAFLASLPQAVHLIVVDASEDETPDIIQRERPARTQVLRRRSTITQARQLGAEAALTDWLLFTDADIVFPDGYFDALERVMDAAVVYGPKLSRDRFAAYYRWFGYGQQCSHWLGIPAATGSNLLVRKDALIAVGGFDPALVCNEDSELVWRIKRAGYRIRFEPSLPVYARDHRRLDSGLWRKTCHSVFRCALLYWDLMPARWRGADWGYWSPQQSGRAPGVSRVELEHHHHHH,failed
2,MNLGQWIGLIALILSLYILWQIKEVLLLMFAAVVLATTLNRLAKRFQRSGMKRGWAVMLAVAIFFAVVVGFFWLIVPPFAEQFNELTYRVPQGFERFNAWINELRTRIPAQLVPYIPDLNSLIQQAQPFINRVLGSSFAIVSGSLEVVLKVLLVLVLTGMLLADPIAYRKVFVRLFPSFYRRRVDGILDQCEVSLEGWVTGAVIAMGVVGLMSVVGLSILGVKAALALGVLAGFLNLIPNLGPTLSVVPAMAIALLDSPWKVVAVLILYFIIQQAESNFITPIVMAQQVSLLPAVTLISQLFFVTFFGFLGLFLALPLTVVAKIWVQEVLIKDVLDEWGHDHSQESELVMVSHYSEGDDHWSDDKQANKPTDDTVSQED,failed
3,MNLHSRQDEGPIPSGNPYALSLSMSAILAPFKKIYDLIDGFVLIMLTAIGIALIAPEIGTGDGPLRLGVVTNLGVALVFFLHGAALSRDKLVAGAKHWRLHVFVQSFTYIVFPIVGVLLMLSLRNTLPPELLLGVFYLCALPSTVSSSVAMTSMARGNVPGAIFNATISGLIGMALTPLLMGLVISASGASMPLGRALMGVALQLLLPFALGQAARPLIGNWLAKKKQITNKIDRGVIVLIVYSSFCDATAAGLWHQYHWQTIGAVMGIAAVLLFVILGTTTFTARRLGFSVEDEITAVFCGSKKSLANGIPMAKILFAGHPALGLLVLPLMVYHQLQLIVCSVIAARYANRDDVETREAVRA,failed
4,MNLINMSNFTSGRRLLRFAVVADSHLNPVNAGNTSPWQTNHLANPRNEVVVAAINRIAPAFTVHVGDVVHPLPHSTDYDGAADFATTLYRGLQAPFYIAPGNHDIGDKHLPGNPAACISADSCGKYEQHFGAQWQAFTEGNVCFIIINACLLGSGLPQEDAQWQFLQSRLAEEKAAGRRLFLFTHYPPFVTAPDEENHYDNIDHGPRRRLLELTASAGVEALFAGHVHTFFLNRHAGMWSYALPSSTNFRQDYAELFRVEPGEELGRNDLGKFGFFVVDIHEHGHIARFVRTYGSTDPAQGEEIALQVEGDVREHAAGTVAADFRHDWARVEALPYNPPLDAFVRKRVRNDYYILNLWDAGMRGVRLPIHDIADEQAFERVRLLGELGHRCLVFGTAVPDAHLLERLASLGPALEGYEWIGPDSAIAAHAAGQFARRGIRLFVAPVMQPPSSHSQGQYDHNMTSGIALGELDHLARFRPQRADASAPGVVVRIAGDEPVLESVRQAVEQAASHGVAIALHINLANRKSALVNDDDQAQAARVAEAAIAKAAYPDVPMTLDTFMDIDRGYFARHGLVDRRNNPRPAATVLRRLSERLRGHAVRIGAITREPAQSTVRIALGDQTLDVRIGRDISF,failed
5,MNLKDLLAHRENLMDSAKRARSAITDDMDPADAAQAVENVKSIISEIESTDEAIAARRGVSDVTQKLKGLTITERGTENDSAASRSLGEHFVKAAGDRLKNQAAGAHIEYSVPEYQVKEDAHSSPKDLVEGWGTFYQR,not failed
6,MNLKQAFIDNNSIRLGLSADTWQEAVRLAVQPLIDSKAVTSAYYDAIIASTEKYGPYYVLMPGMAMPHAEAGLGVNRNAFALITLTKPVTFSDGKEVSVLLTLAATDPSIHTTVAIPQIVALFELDNAIERLVACQSPKEVLEMVEESKDSPYLEGMDLNA,not failed
7,MNLLIKINPVTRIIALMVLTTPLLLSLDVMSAAIALVATIILAPFAGVTWKMLLKRGWMLFLMAPVAALSMALYGRPDGKEYFSFLLIHVTDNSLALAAAIGLRVLAIGLPVVVLIARIDPTDLGDGLAQLLKLPERFVIGAVAGSRLMTLFREDWYSMSRARRARGIADQGKIKHFFTMTFGLLVLSLRRGSKLATAMEARGFGRTTGRTWARESTVGARDLVLILVCAAISAIALTVSIQTGFFKFLGT,failed
8,MNLLVTSSLGVLLHLVVLCQADDHSELLVNTKSGKVMGTRVPVLSSHISAFLGIPFAEPPVGNMRFRRPEPKKPWSGVWNASTYPNNCQQYVDEQFPGFSGSEMWNPNREMSEDCLYLNIWVPSPRPKSTTVMVWIYGGGFYSGSSTLDVYNGKYLAYTEEVVLVSLSYRVGAFGFLALHGSQEAPGNVGLLDQRMALQWVHDNIQFFGGDPKTVTIFGESAGGASVGMHILSPGSRDLFRRAILQSGSPNCPWASVSVAEGRRRAVELGRNLNCNLNSDEELIHCLREKKPQELIDVEWNVLPFDSIFRFSFVPVIDGEFFPTSLESMLNSGNFKKTQILLGVNKDEGSFFLLYGAPGFSKDSESKISREDFMSGVKLSVPHANDLGLDAVTLQYTDWMDDNNGIKNRDGLDDIVGDHNVICPLMHFVNKYTKFGNGTYLYFFNHRASNLVWPEWMGVIHGYEIEFVFGLPLVKELNYTAEEEALSRRIMHYWATFAKTGNPNEPHSQESKWPLFTTKEQKFIDLNTEPMKVHQRLRVQMCVFWNQFLPKLLNATACDGELSSSGTSSSKGIIFYVLFSILYLIF,not failed
9,MNLPKKVRLVEVGPRDGLQNEKQPIEVADKIRLVDDLSAAGLDYIEVGSFVSPKWVPQMAGSAEVFAGIRQRPGVTYAALAPNLKGFEAALESGVKEVAVFAAASEAFSQRNINCSIKDSLERFVPVLEAARQHQVRVRGYISCVLGCPYDGDVDPRQVAWVARELQQMGCYEVSLGDTIGVGTAGATRRLIEAVASEVPRERLAGHFHDTYGQALANIYASLLEGIAVFDSSVAGLGGCPYAKGATGNVASEDVLYLLNGLEIHTGVDMHALVDAGQRICAVLGKSNGSRAAKALLAKA,not failed
10,MNLPPNPVIARGRGRGRKPNNVEANRGFAPSLGQKSDPSHSEGNQASGGNGGGGDAQVGPSIEKSSLSAVQMHKSEGDPRGSVRGRRLITDLVYSRPPGMTSKKGVVGTHITVQANYFKVLKRPNWTIYQYRVDFTPDVEATRLRRSFLY,failed
11,MNLQNWKLSEYVCAVENLSYTEFFRIIEYANDAGIPVNFVTNGTLITEEFVKKLSELNIGSVQVSLDGSKPEIMDRLRGNGIFHRAINSIKRLIDYGINTSVAFCATRINIRDFPNVVELASKLGVFEVRSMYFVPETEAHIKLAPSESQYKELLQWIYDN,failed
12,MNLVETAQAIKTGKVSLGIELGSTRIKAVLITDDFNTIASGSYVWENQFVDGTWTYALEDVWTGIQQSYTQLAADVRSKYHMSLKHINAIGISAMMHGYLAFDQQAKLLVPFRTWRNNITGQAADELTELFDFNIPQRWSIAHLYQAILNNEAHVKQVDFITTLAGYVTWKLSGEKVLGIGDASGVFPIDETTDTYNQTMLTKFSQLDKVKPYSWDIRHILPRVLPAGAIAGKLTAAGASLLDQSGTLDAGSVIAPPEGDAGTGMVGTNSVRKRTGNISVGTSAFSMNVLDKPLSKVYRDIDIVMTPDGSPVAMVHVNNCSSDINAWATIFHEFAARLGMELKPDRLYETLFLESTRADADAGGLANYSYQSGENITKIQAGRPLFVRTPNSKFSLPNFMLTQLYAAFAPLQLGMDILVNEEHVQTDVMIAQGGLFRTPVIGQQVLANALNIPITVMSTAGEGGPWGMAVLANFACRQTAMNLEDFLDQEVFKEPESMTLSPEPERVAGYREFIQRYQAGLPVEAAAGQAIKYLEHHHHHH,not failed
13,MNLVQAFLLSFTAFFAIMNPFANLPMFVSLTADNNRKEVDAIARLAFIVATVIVALFALLGNYIFSIFGINLSALRIMGGIILGLIGYHMIQGNVSPIQHDPKQSVKDSINSNNTDVAISPLAMPVLAGPGTIATTMNLSSSTNPFIVISAFVVLSVITYFIFIYGEQIMAKLGNNIMNVITKLMGLILATIGVRMLIMGVQVAFHW,failed
14,MNLVQDKVTIITGGTRGIGFAAAKIFIDNGAKVSIFGETQEEVDTALAQLKELYPEEEVLGFAPDLTSRDAVMAAVGQVAQKYGRLDVMINNAGITSNNVFSRVSEEEFKHIMDINVTGVFNGAWCAYQCMKDAKKGVIINTASVTGIFGSLSGVGYPASKASVIGLTHGLGREIIRKNIRVVGVAPGVVNTDMTNGNPPEIMEGYLKALPMKRMLEPEEIANVYLFLASDLASGITATTVSVDGAYRP,not failed
15,MNMKKIFKRTSLLLATALIGVTATVQAQKSPQDMDRFIDALMRRMTVEEKIGQLNLPVTGEITTGQAKSSDVAKKIEQGLVGGLFNLKGVAKIRDVQKLAVENSRLGIPLLFGMDVIHGYETIFPIPLGLSCTWDMAAIEQSARIAATEASADGISWTFSPMVDISRDPRWGRVSEGSGEDPFLGGAIARAMVLGYQGKDPDDQLKRNDEIMACVKHFALYGAGEAGRDYNTVDMSRNRMFNEYMYPYEAAVRAGVGSAMASFNEVDGVPATANHWLMTDVLRKQWGFNGFVVTDFTGISEMVEHGIGNLQTVSTRALNAGVDMDMVSEGFVGTLKKSLTEGKITMKTLDAACRRILEAKYKLGLFDDPYKYCDLSRPARDIFTREHRAAARRIAAESFVLLKNEPFEGQGKKSSRPVLPLEKQGTVAVIGPLGNTRSNMPGTWSVAARLDDYPSLYEGLKEMTASRVNITYAKGSNLISDAAYEERATLFGRSLNRDNRTDKKLLDEALKVASGADVIVAALGESSEMSGESSSRTDLGIPDVQRTLLEALLKTGKPVVLTLFTGRPLTLTWEQEHVPAILNVWFGGSEAAYAIGDVLFGDVNPSGKLTMTFPKNVGQIPLFYNHKNTGRPLAEGKWFEKFRSNYLDVDNEPLYPFGYGLSYTTFRYSDIALSTPVMGQNGSTTAVVTVTNTGKRDGAEVVQLYIRDLVGSITRPVRELKGFEKVFLKAGESKTVSFKITPELLRFYDYDLNHVAEPGDFDVMIGGSSQAEKTARLTLK,failed
16,MNMYRVLLIILGWISVVLATLGVVLPLLPTTPFLLLAAWCFARSSPRFHNWLLHRSWFGSYLRHWQQHRALPPGAKWKAVTMILLTFALSLWLVKLVWVRILLLVILTILLTFMLRLPVVDPEQQTQGADPKR,failed
17,MNNIAAIVVTYNRKKLLKKCIKGLKEQTEKADIIIIDNMSTDGTLEMLQPLINSNEIIYHSTGKNIGGAGGFYEGIKLAYEMGYKYFWLMDDDCIPTSSALEKLMNVVNEKKNFGFLVSKALWKDGEVCKMNIPKIKLTKQVNDFSKKVIQIKMGTFVSFLTSREVVEKVGLPIKEFFIWGDDLEYSQRISQKFPSYLVTNSLVYHETKLNEGSNIALDSVDRLKRYKLAYRNEVVLFKEMGLQGQMYQYFRLVLHCGRILFKSKDHKKERLNIIFQGTRAGYNFHPVIKNIK,failed
18,MNNIIVGMGEALWDVLPEGKKIGGAPANFAYHVSQFGFDSRVVSAVGNDELGDEIMEVFKEKQLKNQIERVDYPTGTVQVTLDDEGVPCYEIKEGVAWDNIPFTDELKRLALNTRAVCFGSLAQRNEVSRATINRFLDTMPDIDGQLKIFDINLRQDFYTKEVLRESFKRCNILKINDEELVTISRMFGYPGIDLQDKCWILLAKYNLKMLILTCGINGSYVFTPGVVSFQETPKVPVADTVGAGDSFTAAFCASILNGKSVPEAHKLAVEVSAYVCTQSGAMPELPVILKDRLL,not failed
19,MNNKITKTSIFLTISLLLITPGFSVVAVGLLTLYSSVKLIKNGLNLNKFDIIPLITLSAYFLSNLPITIIDGDTLRYLDAGIRALLCIPMYFFIKNEISKGANLDNTLCTSTILASFGALAFAFYQFFILNMPRVDGFLFSINFGYLAAALAILSFGLSFTQTRFKYYLYLSVVAATVATILTLTRGAILTLLFVFILFFIVNVRKIKFKQTLVFTLISFLLVSVSYQFSPRIQERVDFTIFEISSIASNNIHAAASSGGRLQLWYAAVEAFKHNPIWGTTYSERESLNIELFKEGKVDEWTSTVPRGHAHSQYFEAIASNGTLGILAIFAMLILPFGVFLNDYRKTGSPISQTGYLFAFGFIIFCLTEAPLQANLIGTFYGFMVAIFYAYIAAKRAKN,failed
20,MNNLFVLLIIIALSVGSNNGSKLWPKNQLHFRNSFSRNYDVLTVHCKSKDDDLGIHTVARSYEYNFKFEDSVFGRTEFFCTLMHGVGSKYSVTFTAYKAKPAFVASTGVIKIWDALDDGIYLTDEDHDFVKIYGW,failed
